Measurements from patent publication US20200079833A1 (AstraZeneca / MedImmune, published 2020).
Starred links: 1 amine or outer side, 2 acyl side, 3 side chain; linkers in the order of their positions; H or OH if unused. Non-standard residues stand in square brackets, D forms with d. Groups on a side chain read outwards from the residue. Primed or numbered codes have the meaning given here. No end group written: not given here. *: point of attachment. γGlu = O=C(O)[C@H](CCC(=O)[*:2])N[*:1]; Stearoyl = CCCCCCCCCCCCCCCCCC(=O)*; Palmitoyl = CCCCCCCCCCCCCCCC(=O)*; αMeF = C[C@](N)(Cc1ccccc1)C(=O)O; αMeK = C[C@](N)(CCCCN)C(=O)O; αMeS = C[C@](N)(CO)C(=O)O; PEG2′ = not defined here; Aib = CC(C)(N)C(=O)O

What follows are binders tested against T1, GLP-1R (INS1e assay) (UniProt P32301 22-463, limits assumed) (assay: cell-based or functional assay).
T1 sequence (looked up): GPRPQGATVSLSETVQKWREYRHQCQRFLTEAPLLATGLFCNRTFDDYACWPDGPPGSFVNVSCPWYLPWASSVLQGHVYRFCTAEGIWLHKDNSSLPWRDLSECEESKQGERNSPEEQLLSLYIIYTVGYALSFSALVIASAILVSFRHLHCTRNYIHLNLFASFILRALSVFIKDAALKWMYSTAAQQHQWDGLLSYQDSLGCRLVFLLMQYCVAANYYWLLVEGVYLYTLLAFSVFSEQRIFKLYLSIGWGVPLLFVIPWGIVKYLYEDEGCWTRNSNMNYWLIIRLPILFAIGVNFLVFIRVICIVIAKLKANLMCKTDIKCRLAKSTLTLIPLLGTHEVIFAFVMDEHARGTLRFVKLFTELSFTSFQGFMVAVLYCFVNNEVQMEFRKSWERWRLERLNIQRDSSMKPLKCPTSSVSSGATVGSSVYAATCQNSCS

INS1e assay EC50 GLP-1 R n1 [nM]	INS1e assay EC50 GLP-1 R n2 [nM]	INS1e assay EC50 Mean pM GLP-1R [pM]	Binder
0.0434	0.0586	51	H[Aib]EGS[αMeF]TSDK([γGlu-Palmitoyl])[αMeS]S[αMeF]LEGEAA[αMeK]E[αMeF]IA[αMeF]VV[αMeK]GG-NH2 (N-terminus assumed; SMILES CCCCCCCCCCCCCCCC(=O)N[C@@H](CCC(=O)NCCCC[C@H](NC(=O)[C@H](CC(=O)O)NC(=O)[C@H](CO)NC(=O)[C@@H](NC(=O)[C@](C)(Cc1ccccc1)NC(=O)[C@H](CO)NC(=O)CNC(=O)[C@H](CCC(=O)O)NC(=O)C(C)(C)NC(=O)[C@@H](N)Cc1c[nH]cn1)[C@@H](C)O)C(=O)N[C@@](C)(CO)C(=O)N[C@@H](CO)C(=O)N[C@@](C)(Cc1ccccc1)C(=O)N[C@@H](CC(C)C)C(=O)N[C@@H](CCC(=O)O)C(=O)NCC(=O)N[C@@H](CCC(=O)O)C(=O)N[C@@H](C)C(=O)N[C@@H](C)C(=O)N[C@@](C)(CCCCN)C(=O)N[C@@H](CCC(=O)O)C(=O)N[C@@](C)(Cc1ccccc1)C(=O)N[C@H](C(=O)N[C@@H](C)C(=O)N[C@@](C)(Cc1ccccc1)C(=O)N[C@H](C(=O)N[C@H](C(=O)N[C@@](C)(CCCCN)C(=O)NCC(=O)NCC(N)=O)C(C)C)C(C)C)[C@@H](C)CC)C(=O)O) [SEQ ID NO 90]
1.93	3.5	2720	H[Aib]EGS[αMeF]TSK([γGlu-Palmitoyl])V[αMeS]S[αMeF]LEGEAA[αMeK]E[αMeF]IA[αMeF]VV[αMeK]GG-NH2 (N-terminus assumed; SMILES CCCCCCCCCCCCCCCC(=O)N[C@@H](CCC(=O)NCCCC[C@H](NC(=O)[C@H](CO)NC(=O)[C@@H](NC(=O)[C@](C)(Cc1ccccc1)NC(=O)[C@H](CO)NC(=O)CNC(=O)[C@H](CCC(=O)O)NC(=O)C(C)(C)NC(=O)[C@@H](N)Cc1c[nH]cn1)[C@@H](C)O)C(=O)N[C@H](C(=O)N[C@@](C)(CO)C(=O)N[C@@H](CO)C(=O)N[C@@](C)(Cc1ccccc1)C(=O)N[C@@H](CC(C)C)C(=O)N[C@@H](CCC(=O)O)C(=O)NCC(=O)N[C@@H](CCC(=O)O)C(=O)N[C@@H](C)C(=O)N[C@@H](C)C(=O)N[C@@](C)(CCCCN)C(=O)N[C@@H](CCC(=O)O)C(=O)N[C@@](C)(Cc1ccccc1)C(=O)N[C@H](C(=O)N[C@@H](C)C(=O)N[C@@](C)(Cc1ccccc1)C(=O)N[C@H](C(=O)N[C@H](C(=O)N[C@@](C)(CCCCN)C(=O)NCC(=O)NCC(N)=O)C(C)C)C(C)C)[C@@H](C)CC)C(C)C)C(=O)O) [SEQ ID NO 91]
11	5.88	8440	H[Aib]EGS[αMeF]TSDV[αMeS]S[αMeF]LEGEAA[αMeK]E[αMeF]IA[αMeF]VV[αMeK]GK([PEG2′-PEG2′-γGlu-Stearoyl])-NH2 [SEQ ID NO 99]
0.233	1.41	822	H[Aib]EGS[αMeF]TSDV[αMeS]S[αMeF]LEGEAA[αMeK]E[αMeF]IA[αMeF]VV[αMeK]K([PEG2′-PEG2′-γGlu-Stearoyl])G-NH2 [SEQ ID NO 100]
1.47	6.65	4060	H[Aib]EGS[αMeF]TSDV[αMeS]S[αMeF]LEGEAA[αMeK]E[αMeF]IA[αMeF]VVK([PEG2′-PEG2′-γGlu-Stearoyl])GG-NH2 [SEQ ID NO 101]
4.22	2.89	3560	H[Aib]EGS[αMeF]TSDV[αMeS]S[αMeF]LEGEAA[αMeK]E[αMeF]IA[αMeF]VK([PEG2′-PEG2′-γGlu-Stearoyl])[αMeK]GG-NH2 [SEQ ID NO 102]
0.428	0.59	509	H[Aib]EGS[αMeF]TSDV[αMeS]S[αMeF]LEGEAA[αMeK]E[αMeF]IA[αMeF]K([PEG2′-PEG2′-γGlu-Stearoyl])V[αMeK]GG-NH2 [SEQ ID NO 103]
0.391	0.27	331	H[Aib]EGS[αMeF]TSDV[αMeS]S[αMeF]LEGEAA[αMeK]E[αMeF]IAK([PEG2′-PEG2′-γGlu-Stearoyl])VV[αMeK]GG-NH2 [SEQ ID NO 104]
0.22	1.72	970	H[Aib]EGS[αMeF]TSDV[αMeS]S[αMeF]LEGEAA[αMeK]E[αMeF]IK([PEG2′-PEG2′-γGlu-Stearoyl])[αMeF]VV[αMeK]GG-NH2 [SEQ ID NO 105]
5.23	11.7	8460	H[Aib]EGS[αMeF]TSDV[αMeS]S[αMeF]LEGEAA[αMeK]EK([PEG2′-PEG2′-γGlu-Stearoyl])IA[αMeF]VV[αMeK]GG-NH2 [SEQ ID NO 107]
0.038	0.458	248	H[Aib]EGS[αMeF]TSDV[αMeS]S[αMeF]LEGEAA[αMeK]K([PEG2′-PEG2′-γGlu-Stearoyl])[αMeF]IA[αMeF]VV[αMeK]GG-NH2 [SEQ ID NO 108]
8.35	4.32	6340	H[Aib]EGS[αMeF]TSDV[αMeS]S[αMeF]LEGEAAK([PEG2′-PEG2′-γGlu-Palmitoyl])E[αMeF]IA[αMeF]VV[αMeK]GG-NH2 [SEQ ID NO 109]
31.6	23.1	27400	H[Aib]EGS[αMeF]TSDV[αMeS]S[αMeF]LEGEAK([PEG2′-PEG2′-γGlu-Stearoyl])[αMeK]E[αMeF]IA[αMeF]VV[αMeK]GG-NH2 [SEQ ID NO 110]
0.501	1.11	806	H[Aib]EGS[αMeF]TSDV[αMeS]S[αMeF]LEGEK([PEG2′-PEG2′-γGlu-Stearoyl])A[αMeK]E[αMeF]IA[αMeF]VV[αMeK]GG-NH2 [SEQ ID NO 111]
0.294	0.476	385	H[Aib]EGS[αMeF]TSDV[αMeS]S[αMeF]LEGK([PEG2′-PEG2′-γGlu-Stearoyl])AA[αMeK]E[αMeF]IA[αMeF]VV[αMeK]GG-NH2 [SEQ ID NO 112]
0.823	1.26	1040	H[Aib]EGS[αMeF]TSDV[αMeS]S[αMeF]LEK([PEG2′-PEG2′-γGlu-Stearoyl])EAA[αMeK]E[αMeF]IA[αMeF]VV[αMeK]GG-NH2 [SEQ ID NO 113]
0.593	0.494	544	H[Aib]EGS[αMeF]TSDV[αMeS]S[αMeF]K([PEG2′-PEG2′-γGlu-Stearoyl])EGEAA[αMeK]E[αMeF]IA[αMeF]VV[αMeK]GG-NH2 [SEQ ID NO 115]
1.61	0.61	1110	H[Aib]EGS[αMeF]TSDV[αMeS]SK([PEG2′-PEG2′-γGlu-Stearoyl])LEGEAA[αMeK]E[αMeF]IA[αMeF]VV[αMeK]GG-NH2 [SEQ ID NO 116]
0.765	1.67	1220	H[Aib]EGS[αMeF]TSDV[αMeS]K([PEG2′-PEG2′-γGlu-Stearoyl])[αMeF]LEGEAA[αMeK]E[αMeF]IA[αMeF]VV[αMeK]GG-NH2 [SEQ ID NO 117]
2.71	1.45	2080	H[Aib]EGS[αMeF]TSDK([PEG2′-PEG2′-γGlu-Stearoyl])[αMeS]S[αMeF]LEGEAA[αMeK]E[αMeF]IA[αMeF]VV[αMeK]GG-NH2 [SEQ ID NO 119]
